Assay results published in patent US20140314784A1 (MEDLMMUNE, published 2014).

What was measured:
[1] = biological target: T1, human CXCR4 (human, UniProt P61073 1-352); experiment: FACS, hybridoma supernatant pre-incubated with human CXCR4 transfected HEK293T cells, competitor Alexa-647 SDF-1
T1 construct: also called CXCR4 receptor; C-X-C chemokine receptor type 4

[2] = biological target: T2, mouse CXCR4 (mouse, UniProt P70658 1-359); experiment: FMAT, hybridoma supernatant on HEK293T cells transiently overexpressing mouse CXCR4
T2 construct: Full-length murine CXCR4 on transiently transfected HEK293T cells; also native on mouse lymphocytes and the EL4 line; also called murine CXCR4
Protocol: (§1) Supernatants collected from harvested cells were tested to assess the ability of the secreted antibodies to bind to HEK293T cells transiently overexpressing either full-length human, murine or cynomolgus monkey CXCR4. […] Cells diluted in PBS containing 2% FBS were seeded at a density of 3000 expressing and 15000 mock transfected cells per well in 384 well plates (Corning Costar, catalog #3712). Immediately after plating, 15 or 20 μl/well of hybridoma supernatants and 10 μl/well of secondary antibody (Goat anti-human IgG Fc Cy5, final concentration 750 ng/ml) were added and plates incubated for 3 hours at room temperature prior to reading the fluorescence on the FMAT 8200 instrument (Applied Biosystems). The product of number of positive events and fluorescence intensity was used as a measure of binding strength.

[3] = biological target: T2, mouse CXCR4; experiment: FMAT, hybridoma supernatant on HEK293T cells transiently overexpressing full-length mouse CXCR4
Protocol: as §1

[4] = biological target: T1, human CXCR4; experiment: FMAT, hybridoma supernatant on HEK293T cells transiently overexpressing full-length human CXCR4
Protocol: as §1

[5] = biological target: T1, human CXCR4; experiment: cell-based or functional assay
[6] = biological target: T3, cynomolgus monkey CXCR4 (cynomolgus monkey, UniProt Q28474 1-352); experiment: FMAT, hybridoma supernatant on HEK293T cells transiently overexpressing full-length cynomolgus CXCR4
T3 construct: whole, on cells; On transiently transfected HEK293T cells or endogenous on the cynomolgus T-cell line HSC-F; also called Cynomolgus CXCR4
Protocol: as §1

[7] = biological target: T1, human CXCR4; experiment: cell-based or functional assay; remark: listed apart in the source

T2 sequence (P70658 whole entry): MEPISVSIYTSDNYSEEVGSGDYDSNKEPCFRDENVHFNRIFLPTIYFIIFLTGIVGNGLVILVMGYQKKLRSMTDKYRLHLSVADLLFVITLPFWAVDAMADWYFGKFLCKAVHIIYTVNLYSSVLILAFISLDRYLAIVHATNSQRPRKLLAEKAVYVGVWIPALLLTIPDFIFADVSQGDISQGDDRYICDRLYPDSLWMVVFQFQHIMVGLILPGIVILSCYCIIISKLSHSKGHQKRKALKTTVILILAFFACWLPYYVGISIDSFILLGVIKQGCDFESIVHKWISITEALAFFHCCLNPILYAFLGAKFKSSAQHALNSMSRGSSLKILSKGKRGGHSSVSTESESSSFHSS
T3 sequence (Q28474 whole entry): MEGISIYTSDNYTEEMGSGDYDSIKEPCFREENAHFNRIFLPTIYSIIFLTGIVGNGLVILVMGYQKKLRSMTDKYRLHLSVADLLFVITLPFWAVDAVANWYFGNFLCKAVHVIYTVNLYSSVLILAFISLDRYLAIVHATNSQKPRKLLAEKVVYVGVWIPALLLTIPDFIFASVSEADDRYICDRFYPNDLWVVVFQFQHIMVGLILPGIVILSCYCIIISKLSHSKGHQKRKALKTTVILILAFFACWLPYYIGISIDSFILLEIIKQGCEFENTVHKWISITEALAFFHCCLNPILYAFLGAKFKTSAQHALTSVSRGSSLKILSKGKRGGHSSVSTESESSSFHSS
T1 sequence (P61073 whole entry): as the sequence (Q28474 whole entry) above, with I24M, H35N, R38K, K146R, S176N counted along it

B1: 5C9 (antibody, V domains shown)
VH: QVQLVESGGGVVQPGRSLRLSCAASGFTFSSYGLHWVRQSPGKGLEWVAVISYDGSKKYYADSVKGRFSISRDNSKNTLYLQMNSLRAEDTAVYYCARDRPSRYSSCMDVWGQGTTVTVSS
VL: QSALTQPASVSGSPGQSITISCTGTSSDVGSNNFVSWYQQHPGKAPKLMIYEVSKRPSGVSNRFSGSKSGNTASLTISGLQAEDEADYYCCSYAGSNTLVFGGGTKLTVL
notes: Fully human monoclonal antibody from XenoMouse hybridoma (lambda light chain)
% Inhibition of SDF-1 binding [1]: -1%
binding result [2]: no binding
Count [3]: 72
FL1 [3]: 4780
FL1 x count [3]: 344000
Count [4]: 233
FL1 [4]: 8800
FL1 x count [4]: 2.05e+06
Jurkat chemotaxis inhibition IC50 pM [5]: 28200 pM
Jurkat chemotaxis inhibition IC50 [5]: 4.22 mg/L
Count [6]: 106
FL1 [6]: 7320
FL1 x count [6]: 776000
% Inhibition 1 hr (Jurkat chemotaxis) [7]: 74%
% Inhibition 24 hr (Jurkat chemotaxis) [7]: 44%
